Test results as given in patent US20110256557A1, “IDENTIFYING PARATHYROID HORMONE AGONISTS AND ANTAGONISTS” (DISCOVERYBIOMED, INC., priority 2008, published 2011).

Experiments:
LRP6-PTH1R complex = target: T1, LRP6-PTH1R complex (Rattus norvegicus, UniProt P25961); assay: Co-immunoprecipitation of endogenous LRP6 and PTH1R in UMR-106 cells; type: cell-based; conditions: IP with antibodies to LRP6, time-dependent
T1 construct: endogenous LRP6 and endogenous PTH1R in UMR-106 cells; endogenous in cells; host or cells: UMR-106
T1 sequence (P25961 27-591): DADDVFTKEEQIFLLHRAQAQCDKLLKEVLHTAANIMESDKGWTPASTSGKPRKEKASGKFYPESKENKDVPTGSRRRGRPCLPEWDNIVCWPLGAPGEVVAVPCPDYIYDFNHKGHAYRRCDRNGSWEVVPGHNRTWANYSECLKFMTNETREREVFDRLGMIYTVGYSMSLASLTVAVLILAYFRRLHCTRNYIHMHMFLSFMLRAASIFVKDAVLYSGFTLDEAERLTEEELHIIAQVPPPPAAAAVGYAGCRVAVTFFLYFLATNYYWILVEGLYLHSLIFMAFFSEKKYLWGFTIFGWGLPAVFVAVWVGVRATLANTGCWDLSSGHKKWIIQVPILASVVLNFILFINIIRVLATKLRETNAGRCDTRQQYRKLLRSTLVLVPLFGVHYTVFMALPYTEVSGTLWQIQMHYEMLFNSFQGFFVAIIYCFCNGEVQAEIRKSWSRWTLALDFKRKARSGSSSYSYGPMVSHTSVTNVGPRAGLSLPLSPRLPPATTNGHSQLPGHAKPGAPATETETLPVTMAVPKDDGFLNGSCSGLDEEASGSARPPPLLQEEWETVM
Protocol: (§1) Cells were harvested in cavitation buffer (5 mM HEPES, pH 7.4, 3 mM MgCl2, 1 mM EGTA, 250 mM sucrose) containing protease and phosphatase inhibitors and homogenized by nitrogen cavitation (200 p.s.i., for 5 minutes) in a cell disruption bomb (Parr Instrument Co.; Moline, Ill.). The cell homogenate was centrifuged twice at 700 g for 10 minutes to pellet the nuclei. The supernatant was further centrifuged at 100,000 g (Beckman SW50.1 rotor) for 1 hour to separate the membrane and cytosol fractions, and the resulting membrane pellet was washed three times with cavitation buffer before use in the assays (Zhang et al., Biochem. J. 343:541-9 (1999)). Immunoprecipitation and Western blot analysis of cell lysates were performed as described previously (Wan et al., Am. J. Pathol. 166:1379-92 (2005)).

PTH1R = target: T2, PTH1R (Homo sapiens, UniProt Q03431); assay: Co-immunoprecipitation of exogenous LRP5/LRP6 constructs with PTH1R in HEK293 cells; type: cell-based; conditions: HEK293 cells
T2 sequence (Q03431 27-593): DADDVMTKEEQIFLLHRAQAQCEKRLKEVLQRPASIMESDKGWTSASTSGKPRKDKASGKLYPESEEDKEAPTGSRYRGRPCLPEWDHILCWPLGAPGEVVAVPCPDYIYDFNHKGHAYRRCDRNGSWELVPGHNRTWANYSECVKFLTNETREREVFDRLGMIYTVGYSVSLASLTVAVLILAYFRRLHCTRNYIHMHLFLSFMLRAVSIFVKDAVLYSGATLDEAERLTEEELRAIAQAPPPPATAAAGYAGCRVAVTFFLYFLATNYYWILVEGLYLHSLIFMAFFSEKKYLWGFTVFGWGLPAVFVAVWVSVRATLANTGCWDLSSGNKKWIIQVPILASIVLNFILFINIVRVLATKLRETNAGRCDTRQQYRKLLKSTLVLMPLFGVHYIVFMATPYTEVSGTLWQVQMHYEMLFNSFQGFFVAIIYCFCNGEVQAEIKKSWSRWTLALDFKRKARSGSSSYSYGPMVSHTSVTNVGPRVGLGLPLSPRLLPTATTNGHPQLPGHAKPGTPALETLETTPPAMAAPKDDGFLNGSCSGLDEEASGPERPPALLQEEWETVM
Excerpt: PTH1R tagged with HA was subcloned into pcDNA3.1. cDNAs from human LRP5 (Mao et al., Mol. Cell. 7:801-9 (2001)) and LRP6 (Tamai et al., Nature 407:530-35 (2000)) tagged with HA and VSVG were subcloned into pCMV and pCS2^+, respectively. LRP6N+T (LRP6 N-terminal plus the transmembrane domain) and LRP6T+C (LRP6 transmembrane domain plus C-terminal) tagged with VSVG were subcloned into pCS2^+. LRP6N+1479m, LRP6N+1490m, LRP6N+1493m and LRP6N+1496m were generated by mutagenesis of either the serine (at amino acid 1490 or amino acid 1496) or threonine (at amino acid 1479 or amino acid 1493) to alanine LRP6N-IgG was generated by fusing the LRP6 extracellular domain with IgG (Tamai et al., Nature 407:530-35 (2000)). si-GFP (Wan et al., Am. J. Pathol. 166:1379-92 (2005)) and si-LRP6 plasmids were generated using a BS/U6 vector. Briefly, a 22-nucleotide oligo (oligo 1) corresponding to nucleotides 2981 to 3002 of the human LRP6 coding region was first inserted into the BS/U6 vector digested with ApaI (blunted) and HindIII. The inverted motif that contains the six-nucleotide spacer and five Ts (oligo 2) was then subcloned into the HindIII and EcoRI sites of the intermediate plasmid to generate BS/U6/LRP5/6.
as §1

[1] = test system: luciferase reporter bearing TCF/LEF binding elements; assay: TCF/LEF luciferase reporter assay in UMR-106 cells; type: cell-based, rat; conditions: UMR-106 cells, agent alone
Method in brief: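 UMR-106 cells in DMEM with 10% FCS, transfected with 0.3 μg TCF-Luc reporter plus 50 ng Renilla luciferase as internal control per well. […]. Triplicates, repeated at least three times.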

Parathyroid hormone [PTH]
complex formation of PTH1R with endogenous LRP6 (LRP6-PTH1R complex): formed a complex with endogenous LRP6 in response to PTH in a time-dependent manner
binding of exogenous PTH1R to exogenous LRP6 (PTH1R): enhances
binding of LRP5 to PTH1R (PTH1R; exogenous LRP5 and PTH1R): did not enhance
transcription of a luciferase reporter bearing TCF/LEF binding elements [1]: stimulated
